# Assay results reported in patent US20100136663.
# Target: T1, ZFP-CRP Del 180 (CRP 1-180 fused to human zinc fingers ZFP1/ZFP2) (Escherichia coli / Homo sapiens) (UniProt P0ACJ8)
# T1 sequence: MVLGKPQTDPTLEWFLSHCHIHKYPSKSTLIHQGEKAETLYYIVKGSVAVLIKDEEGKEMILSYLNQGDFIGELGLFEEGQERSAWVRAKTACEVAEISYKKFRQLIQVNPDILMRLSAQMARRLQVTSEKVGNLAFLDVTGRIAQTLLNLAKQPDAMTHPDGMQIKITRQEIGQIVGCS
# Assay: cell_activity
Sequence,"activity (fold repression) (E. coli EGFP reporter with 1 mM IPTG, assignment of SEQ 8 to pEGFP-R inferred)","activity (fold activation) (E. coli EGFP reporter without IPTG, 2-fold with 1 mM IPTG, assignment of SEQ 7 to pEGFP-A inferred)"
ATCGATAAGCTTACTCCCCATCCCCCTGTTGACAATTAATCATCGGCTCGTATAATGTGTGGAATTGTGAGCGGATAACAATTTCGCGGCGGGGGCGGCGGGGACACAGGAAACAGGATCAAATTATGCCTGTCGAC (double strand),1.5,–
ATCGATAAGCTTGCGGCGGGGGCGGCGGGGACTCCCCATCCCCCTGTTGACAATTAATCATCGGCTCGTATAATGTGTGGAATTGTGAGCGGATAACAATTTCACACAGGAAACAGGATCAAATTATGCCTGTCGAC (double strand),–,3
